Results: patent US20240392004A1 (IMMUNOWAKE, published 2024)
Numbering of substitutions follows the chain as printed. Names may count otherwise. One block for each binder: values may come before it.

Legend:
[1] = molecular target: T1, human IL-2 receptor (IL-2Rα, IL-2Rβ, IL-2Rγ) (human, UniProt P01589 22-272; P14784 27-551; P31785 23-369); assay: cell-based or functional assay
T1 sequence (looked up) 1: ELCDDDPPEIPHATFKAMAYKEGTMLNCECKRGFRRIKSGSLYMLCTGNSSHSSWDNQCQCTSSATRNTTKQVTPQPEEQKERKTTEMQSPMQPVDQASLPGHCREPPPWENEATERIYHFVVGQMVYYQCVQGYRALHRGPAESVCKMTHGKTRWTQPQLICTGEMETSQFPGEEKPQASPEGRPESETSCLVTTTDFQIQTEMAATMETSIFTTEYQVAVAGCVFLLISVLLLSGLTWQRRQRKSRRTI
T1 sequence (looked up) 2: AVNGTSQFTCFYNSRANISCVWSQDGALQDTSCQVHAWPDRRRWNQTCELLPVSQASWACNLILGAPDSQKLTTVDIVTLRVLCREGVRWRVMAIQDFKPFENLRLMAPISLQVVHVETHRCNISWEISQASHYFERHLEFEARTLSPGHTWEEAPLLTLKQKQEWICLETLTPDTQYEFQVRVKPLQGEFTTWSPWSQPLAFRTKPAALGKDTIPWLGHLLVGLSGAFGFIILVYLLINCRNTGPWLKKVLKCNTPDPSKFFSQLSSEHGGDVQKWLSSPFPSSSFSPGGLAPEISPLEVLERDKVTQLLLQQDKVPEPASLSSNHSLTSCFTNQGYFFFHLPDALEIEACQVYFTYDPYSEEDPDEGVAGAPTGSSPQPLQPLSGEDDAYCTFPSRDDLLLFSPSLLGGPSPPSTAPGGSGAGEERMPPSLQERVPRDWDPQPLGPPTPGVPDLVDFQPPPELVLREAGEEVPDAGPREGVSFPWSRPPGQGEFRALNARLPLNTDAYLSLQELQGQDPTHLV
T1 sequence (looked up) 3: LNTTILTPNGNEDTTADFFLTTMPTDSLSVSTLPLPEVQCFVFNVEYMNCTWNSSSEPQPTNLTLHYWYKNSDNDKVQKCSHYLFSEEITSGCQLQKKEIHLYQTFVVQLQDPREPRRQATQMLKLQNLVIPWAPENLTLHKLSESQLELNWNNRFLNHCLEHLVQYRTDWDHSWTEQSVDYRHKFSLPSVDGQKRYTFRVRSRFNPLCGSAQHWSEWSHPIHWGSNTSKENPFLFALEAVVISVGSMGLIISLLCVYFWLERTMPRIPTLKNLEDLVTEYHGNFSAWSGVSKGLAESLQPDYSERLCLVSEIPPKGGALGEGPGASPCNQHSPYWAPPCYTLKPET

[2] = molecular target: T2, human TIGIT on HEK-Blue reporter cells (human, UniProt Q495A1 22-244); assay: cell-based or functional assay
T2 sequence (looked up): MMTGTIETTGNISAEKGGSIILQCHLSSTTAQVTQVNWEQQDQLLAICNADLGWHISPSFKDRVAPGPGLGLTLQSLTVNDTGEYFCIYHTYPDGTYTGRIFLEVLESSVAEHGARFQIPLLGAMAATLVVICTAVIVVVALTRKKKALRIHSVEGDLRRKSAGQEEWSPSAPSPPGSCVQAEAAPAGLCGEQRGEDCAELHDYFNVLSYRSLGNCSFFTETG

B3: IL-2(L18R/Q22E/R38D/K43E/E61R/Q126T)/CD155-Fc (Fc fusion)
chain 1: WPPPGTGDVVVQAPTQVPGFLGDSVTLPCYLQVPNMEVTHVSQLTWARHGESGSMAVFHQTQGPSYSESKRLEFVAARLGAELRNASLRMFGLRVEDEGNYTCLFVTFPQGSRSVDIWLRVLAKPQNTAEVQKVQLTGEPVPMARCVSTGGRPPAQITWHSDLGGMPNTSQVPGFLSGTVTVTSLWILVPSSQVDGKNVTCKVEHESFEKPQLLTVNLTVYYPPEVSISGYDNNWYLGQNEATLTCDARSNPEPTGYNWSTTMGPLPPFAVAQGAQLLIRPVDKPINTTLICNVTNALGARQAELTVQVKEGPPSEHSGISRNGGGGSGGGDKTHTCPPCPAPEDEGGPSVFLFPPKPKDTLMISRTPEVTCVVVDVSHEDPEVKFNWYVDGVEVHNAKTKPREEQYNSTYRVVSVLTVLHQDWLNGKEYKCKVSNKALPAPIEKTISKAKGQPREPQVYVYPPSREEMTKNQVSLTCLVKGFYPSDIAVEWESNGQPENNYKTTPPVLDEDGSFALVSKLTVDKSRWQQGNVFSCSVMHEALHNHYTQKSLSLSPGK
chain 2: WPPPGTGDVVVQAPTQVPGFLGDSVTLPCYLQVPNMEVTHVSQLTWARHGESGSMAVFHQTQGPSYSESKRLEFVAARLGAELRNASLRMFGLRVEDEGNYTCLFVTFPQGSRSVDIWLRVLAKPQNTAEVQKVQLTGEPVPMARCVSTGGRPPAQITWHSDLGGMPNTSQVPGFLSGTVTVTSLWILVPSSQVDGKNVTCKVEHESFEKPQLLTVNLTVYYPPEVSISGYDNNWYLGQNEATLTCDARSNPEPTGYNWSTTMGPLPPFAVAQGAQLLIRPVDKPINTTLICNVTNALGARQAELTVQVKEGPPSEHSGISRNGGGSGAPTSSSTKKTQLQLEHLRLDLEMILNGINNYKNPKLTDMLTFEFYMPKKATELKHLQCLERELKPLEEVLNLAQSKNFHLRPRDLISNINVIVLELKGSETTFMCEYADETATIVEFLNRWITFCTSIISTLTGGGGSGGGDKTHTCPPCPAPEKKGGPSVFLFPPKPKDTLMISRTPEVTCVVVDVSHEDPEVKFNWYVDGVEVHNAKTKPREEQYNSTYRVVSVLTVLHQDWLNGKEYKCKVSNKALPAPIEKTISKAKGQPREPQVYVLPPSREEMTKNQVSLLCLVKGFYPSDIAVEWESNGQPENRYMTWPPVLDSDGSFFLYSKLTVDKSRWQQGNVFSCSVMHEALHNHYTQKSLSLSPGK
IL-2 signal transduction, HEK-IL-2 [1]: 2% | IL-2 signal transduction, HEK-IL-2-TIGIT [2]: 15%

B4: IL-2(L18R/Q22E/R38D/K43E/E61R/Q126T/S130R)/CD155-Fc (Fc fusion)
chain 1: B3 chain 1
chain 2: B3 chain 2 with S458R
IL-2 signal transduction, HEK-IL-2 [1]: < 0.1% | IL-2 signal transduction, HEK-IL-2-TIGIT [2]: < 0.1%

B5: IL-2(R38D/K43E/E61R/Q126T)/CD155-Fc (Fc fusion)
chain 1: B3 chain 1
chain 2: B3 chain 2 with R346L, E350Q
IL-2 signal transduction, HEK-IL-2 [1]: 3% | IL-2 signal transduction, HEK-IL-2-TIGIT [2]: 29%

Other lines, results leading:

IL-2 signal transduction, HEK-IL-2 [1]: < 0.1% | IL-2 signal transduction, HEK-IL-2-TIGIT [2]: < 0.1%
B1: CD155-Fc (control) (Fc fusion)
chain 1: B3 chain 1
chain 2: B3 chain 1 with D345K, E346K, Y462L, T477L, N501R, K503M, T505W, E511S, A516F, V518Y

IL-2 signal transduction, HEK-IL-2 [1]: 9% | IL-2 signal transduction, HEK-IL-2-TIGIT [2]: 56%
B2: IL-2(L18R/Q22E/R38D/K43E/E61R)/CD155-Fc (Fc fusion)
chain 1: B3 chain 1
chain 2: B3 chain 2 with T454Q
